Data taken from the Human Domainome abundance scans (Beltran et al. 2025).
± gives the uncertainty stated by the source.

B1: Far upstream element-binding protein 2, residues 142 to 214; numbered along this chain, Q92945 (parent)
chain: RTSMTEEYRVPDGMVGLIIGRGGEQINKIQQDSGCKVQISPDSGGLPERSVSLTGAPESVQKAKMMLDDIVSR
B2: Double-stranded RNA-binding protein Staufen homolog 1, residues 183 to 249; numbered along this chain, O95793 (parent)
chain: KSEISQVFEIALKRNLPVNFEVARESGPPHMKNFVTKVSVGEFVGEGEGKSKKISKKNAAIAVLEEL

Variants of: B1
Experiment: abundance fitness (aPCA) (normalised: wild type 0, dead -1); higher = more abundant; growth selection in yeast, the domain comes from the species named
Details: Homo sapiens

Abundance fitness of substitutions, site by site:
R73: V -0.074 ± 0.049
M14: W -0.319 ± 0.05; G -0.361 ± 0.04
V71: P -0.553 ± 0.059; C -0.052 ± 0.064; Y -0.22 ± 0.1
L17: F -0.072 ± 0.078; Y -0.147 ± 0.089
N27: M -0.085 ± 0.069; T 0.007 ± 0.049; F -0.081 ± 0.097
T5: C -0.125 ± 0.055; W -0.456 ± 0.045; E -0.304 ± 0.046; R -0.168 ± 0.034
D69: W -0.321 ± 0.057
P57: V -0.192 ± 0.049; M -0.225 ± 0.066; K -0.185 ± 0.071; F -0.357 ± 0.084; C -0.432 ± 0.082; H -0.213 ± 0.084

Variants of: B2
Experiment: as above
Details: Homo sapiens

Abundance fitness: each site, then its substitutions
A11: E -0.822 ± 0.079; D -0.679 ± 0.08; L -0.9 ± 0.079; F -1.13 ± 0.24; K -0.633 ± 0.068; I -1.08 ± 0.26; C -0.825 ± 0.11; G 0.035 ± 0.039
V7: D -0.676 ± 0.075; F -0.748 ± 0.083; I -0.24 ± 0.043; G -0.626 ± 0.046; C -0.607 ± 0.077; E -0.486 ± 0.06; K -0.586 ± 0.059; A -0.781 ± 0.055; L -0.142 ± 0.038; T -0.717 ± 0.075; M -0.295 ± 0.056; Q -0.681 ± 0.062; S -0.656 ± 0.052; W -1.13 ± 0.081; R -0.631 ± 0.039; Y -0.782 ± 0.14; H -0.857 ± 0.14; P -0.68 ± 0.066
S2: R -0.382 ± 0.048; D -0.382 ± 0.072; F -0.709 ± 0.098; K -0.015 ± 0.099; G -0.136 ± 0.052; A -0.41 ± 0.051; Y -0.653 ± 0.087; C -0.482 ± 0.11; T -0.235 ± 0.052; H -0.546 ± 0.096; I -1.02 ± 0.26; W -0.902 ± 0.16; V -0.7 ± 0.11; P -0.328 ± 0.051; Q -0.305 ± 0.076; E -0.381 ± 0.082
I4: K -0.516 ± 0.062; M -0.292 ± 0.054; Q -0.661 ± 0.073; D -0.388 ± 0.077; W -0.359 ± 0.051; V -0.059 ± 0.037; F -0.534 ± 0.07; H -0.447 ± 0.067; R -0.7 ± 0.042; E -0.44 ± 0.062; C -0.417 ± 0.084; S -0.461 ± 0.056; Y -0.74 ± 0.092; G -0.735 ± 0.056; A -0.705 ± 0.064; N -0.56 ± 0.094; T -0.391 ± 0.062
Q6: M -0.169 ± 0.038; D -0.435 ± 0.033; G -0.634 ± 0.028; R -0.097 ± 0.026; T -0.198 ± 0.03; F -0.653 ± 0.038; P -0.697 ± 0.038; L -0.158 ± 0.027; S -0.255 ± 0.026; N -0.494 ± 0.03; H -0.415 ± 0.034; I -0.393 ± 0.034; C -0.283 ± 0.033; E -0.021 ± 0.037
K1: S -0.316 ± 0.071; H -0.738 ± 0.2; G -0.175 ± 0.044; W -0.514 ± 0.073; V -0.335 ± 0.054; A -0.436 ± 0.11; N -0.079 ± 0.12; F -0.602 ± 0.28; D -0.235 ± 0.095; T -0.166 ± 0.065; I -0.201 ± 0.092; E -0.263 ± 0.081; Y -0.211 ± 0.11; R -0.178 ± 0.048; C -0.177 ± 0.1; L -0.3 ± 0.052
S5: F -0.512 ± 0.2; P -0.528 ± 0.16
I10: T -0.542 ± 0.22
E9: L -0.36 ± 0.041; M -0.317 ± 0.05; H -0.155 ± 0.079; V -0.517 ± 0.038; S -0.2 ± 0.04; A -0.057 ± 0.038; T -0.197 ± 0.048; I -0.552 ± 0.072; G -0.433 ± 0.039; Y -0.338 ± 0.069; D -0.049 ± 0.047; Q -0.038 ± 0.051; W -0.506 ± 0.064; R -0.232 ± 0.036; C -0.33 ± 0.075; P -0.716 ± 0.071; F -0.545 ± 0.066
F8: N -0.317 ± 0.063; T -0.337 ± 0.048; V -0.203 ± 0.04; E -0.268 ± 0.048; L -0.112 ± 0.039; D -0.408 ± 0.066; K -0.135 ± 0.055; A -0.334 ± 0.047; W 0.064 ± 0.047; Y 0.129 ± 0.062; H -0.012 ± 0.074; C -0.258 ± 0.066; G -0.332 ± 0.039; R -0.129 ± 0.033; M -0.143 ± 0.058; S -0.394 ± 0.039; P -0.457 ± 0.056
E3: N -0.396 ± 0.086; K -0.194 ± 0.072; I -0.001 ± 0.082; T -0.236 ± 0.056; G -0.551 ± 0.04; D -0.286 ± 0.059; L -0.231 ± 0.043; H -0.219 ± 0.072; A -0.049 ± 0.041; C -0.205 ± 0.064; Y -0.098 ± 0.079; Q -0.247 ± 0.062; W -0.309 ± 0.082; S -0.208 ± 0.045; F -0.177 ± 0.07; V -0.022 ± 0.037; R -0.551 ± 0.047; M -0.509 ± 0.055; P -0.023 ± 0.07
